Test results published in PMC9359782.

Target: Human immunoglobulin G (IgG) (human)
Test: LSPR

LLSPR wavelength shift: < 1 nm
Substance: Bovine serum albumin (from UniProt P02769 25-607) (natural protein)
